Data on one molecule can be found in US20140234339A1 (JULIUS MAXIMILIANS UNIVERSIT T W RZBURG, published 2014).

Test [1] has as its target T1, IsaA (immunodominant structure IsaA of Staphylococcus aureus) (Staphylococcus aureus, UniProt P99160 30-233, limits assumed).
T1 construct: The ELISA text calls it soluble recombinant IsaA; also called IsaA antigen; soluble recombinant IsaA
T1 sequence (looked up): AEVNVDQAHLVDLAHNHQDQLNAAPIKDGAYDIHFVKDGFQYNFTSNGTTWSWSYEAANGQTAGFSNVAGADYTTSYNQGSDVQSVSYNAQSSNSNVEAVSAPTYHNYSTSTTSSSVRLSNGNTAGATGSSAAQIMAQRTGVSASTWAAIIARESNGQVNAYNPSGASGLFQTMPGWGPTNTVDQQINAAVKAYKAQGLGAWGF
Put plainly: SPR (BIACORE 2000), UK66-2 captured via anti-Fab antibody, IsaA as analyte, 25 C, 1:1 Langmuir fit, two independent measurements. (In general: Surface plasmon resonance follows binding to a sensor surface in real time, without labels.)

Test [2] addresses T1, IsaA (immunodominant structure IsaA of …). Nature of the test: SPR (BIACORE 2000), UK66-2 captured via anti-Fab antibody, IsaA as analyte, 25 C, 1:1 Langmuir fit.

B1: antibody UK66-2 (antibody, V domains shown)
VH: EVQLLESGGGLVQPGGSLRLSCAASGFTFSNYYMSWVRQAPGKGLEWVSDINGNGGSTYYPDTVKGRFTISRDNSKNTLYLQMNSLRAEDTAVYYCVRRGGYYALDYWGQGTTVTVSS
VL: DVVMTQTPLSLSVTPGQPASISCRSSQSLVHINGNTYLHWYLQKPGQSPQLLIYRVSNRFSGVPDRFSGSGSGTDFTLKISRVEAEDVGVYYCSQSTHVPWTFGGGTKLELKR
notes: In the SPR assay it was captured by an anti-Fab antibody; also called anti-IsaA antibody UK66-2
The Kd is the equilibrium constant for the complex coming apart. Lower therefore signals tighter binding. A word on the koff: it is the first-order rate constant of dissociation. Low values mean slow dissociation, high ones fast dissociation. By kon is commonly meant the second-order rate constant of association. A higher kon goes with faster complex formation. B1 returned a Kd in test [1] of 4.8 nM. In test [2], the koff amounted to 0.0018 s⁻¹ and the kon was 370000 M⁻¹ s⁻¹.
